Values quoted from earlier work as cited in patent US20210244796A1, “COMPOSITIONS IN THE FORM OF AN INJECTABLE AQUEOUS SOLUTION COMPRISING AMYLIN AN AMYLIN RECEPTOR AGONIST OR AN AMYLIN ANALOG, AT LEAST ONE IONIC SPECIES AND AN AMPHOIPHILIC COMPOUNDS CONTAINING HYDRIPHOBIC RADICALS” (ADOCIA, priority 2018, published 2021).
Where two headings read alike, the source gives them in different places.

Compound | pH of the solution above which the peptide is described as shining (pramlintide formulated at acidic pH) | Time for which amylin is stable (acidic pH) | Time for which amylin is stable (neutral pH)
CC[C@H](C)[C@H](NC(=O)[C@@H]1CCCN1C(=O)CNC(=O)[C@H](Cc1ccccc1)NC(=O)[C@H](CC(N)=O)NC(=O)[C@H](CC(N)=O)NC(=O)[C@H](CO)NC(=O)[C@H](CO)NC(=O)[C@H](Cc1c[nH]cn1)NC(=O)[C@@H](NC(=O)[C@H](CC(C)C)NC(=O)[C@H](Cc1ccccc1)NC(=O)[C@H](CC(N)=O)NC(=O)[C@H](C)NC(=O)[C@H](CC(C)C)NC(=O)[C@H](CCCNC(=N)N)NC(=O)[C@H](CCC(N)=O)NC(=O)[C@@H](NC(=O)[C@H](C)NC(=O)[C@@H]1CSSC[C@H](NC(=O)[C@@H](N)CCCCN)C(=O)N[C@@H](CC(N)=O)C(=O)N[C@@H]([C@@H](C)O)C(=O)N[C@@H](C)C(=O)N[C@@H]([C@@H](C)O)C(=O)N1)[C@@H](C)O)C(C)C)C(=O)N[C@@H](CC(C)C)C(=O)N1CCC[C@H]1C(=O)N1CCC[C@H]1C(=O)N[C@H](C(=O)N[C@@H](CC(N)=O)C(=O)N[C@H](C(=O)NCC(=O)N[C@@H](CO)C(=O)N[C@@H](CC(N)=O)C(=O)N[C@H](C(=O)N[C@@H](Cc1ccc(O)cc1)C(N)=O)[C@@H](C)O)C(C)C)[C@@H](C)O [pramlintide, reference compound] | greater than 5.5 | – | –
Amylin: 37 amino acid peptide co-stored and co-secreted with insulin (KCNTATCATQRLANFLVHSSNNFGAILSSTNVGSNTY; Islet amyloid polypeptide; UniProt P10997 34-70, looked up) | – | about fifteen | less than one
